Tests used:
[1] = tested on: cervical cell lines (HeLa, KB, and WISH); assay: Clonogenic assay; assay type: cell-based, human
Experimental: (§1) The cytotoxicity of maytansinoid conjugated muDS6 antibody was examined using 2 different assay formats in various DS6 positive cell lines. Clonogenic assays were conducted where cells (1000-2500 cells/well) were plated on 6-well plates in 2 ml of conjugate diluted in culture media. […] The wells were washed with PBS and the colonies were stained with a 1% w/v crystal violet/10% v/v formaldehyde/PBS solution. Unbound stain was then washed thoroughly from the wells with distilled water, and the plates were allowed to dry. The colonies were counted using a Leica StereoZoom 4 dissecting microscope.
(§2) Plating efficiency (PE) was calculated as the number of colonies/number of cells plated. Surviving fraction was calculated as PE of treated cells/PE of non-treated cells. The IC50 concentration was determined by graphing the surviving fraction of cells vs. the molar concentration of the conjugate.

[2] = tested on: A375 cells (antigen negative); assay: Clonogenic assay; assay type: cell-based, human; details: 3×10^−9 M, highest concentration tested
Experimental: as §1, §2

[3] = tested on: pancreatic cell lines; assay: Clonogenic assay; assay type: cell-based, human
Experimental: as §1, §2

[4] = tested on: Caov-3 cells; assay: Flow cytometry binding assay; set-up: species or system human
Experimental: (§3) Flow cytometric analysis was used to localize the DS6 epitope, CA6, to the cell surface. Human cell lines were obtained from the American Type Culture Collection (ATCC) with the exception of OVCAR5 (Kearse et al., Int. J. Cancer 88(6):866-872 (2000)), OVCAR8 and IGROV1 cells (M. Seiden, Massachusetts General Hospital). All cells were grown in RPMI 1640 supplemented with 4 mM L-glutamine, 50 U/ml penicillin, 50 μg/ml streptomycin (Cambrex Bio Science, Rockland, Me.) and 10% v/v fetal bovine serum (Atlas Biologicals, Fort Collins, Colo.), referred hereafter as culture media. Cells were maintained in a 37° C., 5% CO2 humidified incubator.
Cells ([…]) were incubated, on ice for 3-4 h, with serially diluted concentrations of the DS6 antibody prepared in FACS buffer (2% goat serum, RPMI) into 96-well plates. […] After two washes, the cells were fixed with 1% formaldehyde and analyzed on a flow cytometer.
The muDS6 antibody (8 mg/ml) was modified using 8-fold molar excess of N-succinimidyl-4-(2-pyridyldithio) pentanoate (SPP) to introduce dithiopyridyl groups. […] The degree of modification was determined by measuring the absorbance of the antibody at 280 nm and the DTT released 2-mercaptopyridine (Spy) at 280 and 343 nm. […] The number of DM1 molecules linked per molecule of muDS6 was determined by measuring the absorbance at both 252 nm and 280 nm of the filtered material. […]

[5] = tested on: OVCAR5 IP tumors; assay: Intraperitoneal OVCAR5 tumor model; assay type: in vivo, SCID mice; details: 600 μg/kg DM1 weekly for 2 weeks
Experimental: Tumor cells were injected intraperitoneally on day 0, and immunoconjugate treatments were given on day 6 and 13. Animals were euthanized once body weight loss exceeded 20%.
Human ovarian cancer is largely a disease of the peritoneum. OVCAR5 cells grow aggressively as an intraperitoneal (IP) model in SCID mice forming tumor nodules and producing ascites in a manner similar to human disease. […] OVCAR5 cells were grown in vitro, harvested and 1×10^7 cells in 100 μL of serum free medium were injected intraperitoneally. Tumors were allowed to grow for 6 days at which time treatment was initiated. Mice were treated weekly for 2 weeks with either PBS or DS6-DM1 conjugate at a dose of 600 μg/kg DM1 and monitored for weight loss resulting from peritoneal disease. By day 28, the PBS group of mice had lost greater than 20% body weight and were euthanized. The treated group was sacrificed at day 45 after exceeding 20% body weight loss.

[6] = tested on: MCF-7 cells; assay: Flow cytometry binding assay; set-up: species or system human
Experimental: as §3
(§4) Cells ([…]) were incubated, on ice for 3-4 h, with serially diluted concentrations of the DS6 antibody prepared in FACS buffer (2% goat serum, RPMI) into 96-well plates. The cells were spun down in a table top centrifuge at 1500 rpm for 5 min at 4° C. After removing the media, the wells were then refilled with 150 μl of FACS buffer. The wash step was then repeated. FITC-labeled goat anti-mouse IgG (Jackson Immunoresearch) was diluted 1:100 to FACS buffer and incubated with the cells for 1 h on ice. The plate was covered in foil to prevent photobleaching of the signal. After two washes, the cells were fixed with 1% formaldehyde and analyzed on a flow cytometer.

[7] = tested on: Caov-4 cells; assay: Flow cytometry binding assay; set-up: species or system human
Experimental: as §3, §4

[8] = tested on: HPAC cells; assay: Flow cytometry binding assay; set-up: species or system human
Experimental: as §3, §4

[9] = tested on: ZR-75-1 cells; assay: Flow cytometry binding assay; set-up: species or system human
Experimental: as §3, §4

[10] = tested on: WISH cells; assay: Flow cytometry binding assay; set-up: species or system human
Experimental: as §3, §4

[11] = tested on: TOV-21G cells; assay: Flow cytometry binding assay; set-up: species or system human
Experimental: as §3, §4

[12] = tested on: SU.86.86 cells; assay: Flow cytometry binding assay; set-up: species or system human
Experimental: as §3, §4

[13] = tested on: OVCAR5 cells; assay: Flow cytometry binding assay; set-up: species or system human
Experimental: as §3, §4

[14] = tested on: CAMA-1 cells; assay: Flow cytometry binding assay; set-up: species or system human
Experimental: as §3, §4

[15] = tested on: BT-549 cells; assay: Flow cytometry binding assay; set-up: species or system human
Experimental: as §3, §4

[16] = tested on: OVCAR-3 cells; assay: Flow cytometry binding assay; set-up: species or system human; details: OVCAR3
Experimental: as §3, §4

[17] = tested on: HPAF-II cells; assay: Flow cytometry binding assay; set-up: species or system human
Experimental: as §3, §4

B1: DS6-DM1: muDS6 antibody modified with SPP and conjugated to the maytansinoid DM1 (conjugate)
VH: QAYLQQSGAELVRSGASVKMSCKASGYTFTSYNMHWVKQTPGQGLEWIGYIYPGNGATNYNQKFKGKATLTADPSSSTAYMQISSLTSEDSAVYFCARGDSVPFAYWGQGTLVTVSA
VL: QIVLTQSPAIMSASPGEKVTITCSAHSSVSFMHWFQQKPGTSPKLWIYSTSSLASGVPARFGGSGSGTSYSLTISRMEAEDAATYYCQQRSSFPLTFGAGTKLELKR
With B1 the “sensitivity to the conjugate” value [1] was “sensitive”, the “effect of conjugate on antigen negative cells” value [2] was “only slightly affected” and the “sensitivity to the conjugate” value [3] was “None of the pancreatic cell lines appeared to have been affected”. The “effect of conjugation on binding affinity” value ([4]; Caov-3 cells, versus unmodified muDS6) was “only a slight loss of affinity”, the “tumor growth delay (in words)” value [5] was “able to delay tumor growth” and the “visible signs of toxicity” value [5] was “no visible signs of toxicity”. For the same molecule, the “day of sacrifice after exceeding 20% body weight loss” value ([5]; PBS group day 28) was 45 days.

B2: DS6: murine anti-CA6 monoclonal antibody DS6 (ATCC deposit number PTA-4449) (antibody, V domains shown)
VH: QAYLQQSGAELVRSGASVKMSCKASGYTFTSYNMHWVKQTPGQGLEWIGYIYPGNGATNYNQKFKGKATLTADPSSSTAYMQISSLTSEDSAVYFCARGDSVPFAYWGQGTLVTVSA
VL: QIVLTQSPAIMSASPGEKVTITCSAHSSVSFMHWFQQKPGTSPKLWIYSTSSLASGVPARFGGSGSGTSYSLTISRMEAEDAATYYCQQRSSFPLTFGAGTKLELKR
For B2, the “MMF (average maximum relative mean fluorescence)” value ([4]; Caov-3) was 465.20, the “MMF (average maximum relative mean fluorescence)” value [6] was 81.41 and the “MMF (average maximum relative mean fluorescence)” value [7] was 149.00. The “MMF (average maximum relative mean fluorescence)” value [8] was 2228.00, the “MMF (average maximum relative mean fluorescence)” value [9] was 811.67 and the “MMF (average maximum relative mean fluorescence)” value [10] was 1133.55. The “MMF (average maximum relative mean fluorescence)” value [11] was 87.79, the “MMF (average maximum relative mean fluorescence)” value [12] was 36.86 and the “MMF (average maximum relative mean fluorescence)” value [13] was 97.10. For the same molecule, the “MMF (average maximum relative mean fluorescence)” value [14] was 12.46, the “MMF (average maximum relative mean fluorescence)” value [15] was 71.39 and the “MMF (maximum mean relative fluorescence)” value [16] was 21.19. The “MMF (average maximum relative mean fluorescence)” value [17] was 266.50.

Reference: patent US8987424B2, “CA6 antigen-specific cytotoxic conjugate and methods of using the same” (ImmunoGen, Inc., priority 2003, dated 2015)
